Data published in article PMC9402439, “Reconstitution of a telomeric replicon organized by CST”.

B1: 15xTEL (ssDNA)
DNA: TTAGGGTTAGGGTTAGGGTTAGGGTTAGGGTTAGGGTTAGGGTTAGGGTTAGGGTTAGGGTTAGGGTTAGGGTTAGGGTTAGGGTTAGGG
B2: 9xTEL (ssDNA)
DNA: TTAGGGTTAGGGTTAGGGTTAGGGTTAGGGTTAGGGTTAGGGTTAGGGTTAGGG

Biological target: CTC1 (CST subunit);STN1 (CST subunit);TEN1 (CST subunit);Polα-primase, endogenous, co-purified with CST (Homo sapiens;Homo sapiens;Homo …, UniProt Q2NKJ3;Q9H668;Q86WV5;P09884;Q14181;P49642;P49643 …, |||)
Assay: EMSA; Kd,app shown only in figure; CST EMSA: 20 mM HEPES-NaOH pH 8.0, 150 mM NaCl, 2 mM MgCl2, 0.2 mM EGTA, 0.1% NP-40, 10% glycerol, 1 mM DTT, 2 h on ice, 0.7% agarose 1x TBE gel at 4 °C; POT1-TPP1N EMSA: C-strand synthesis buffer, 30 min at 30 °C
Details: protein: recombinant;recombinant;recombinant;native; tags: N-terminal 3xFLAG;N-terminal Myc;N-terminal HA;; copies: 1;1;1;1;1;1;1; label: 5'-32P; folds into G-quadruplex in KCl and NaCl, not LiCl

Row | Binder | binding result
1 | B1 | binds
2 | B2 | binds
